According to IntAct's records for PubMed 25910212:

B1: Keratin, type II cytoskeletal 1 (Homo sapiens), P04264 (parent)
chain: MSRQFSSRSGYRSGGGFSSGSAGIINYQRRTTSSSTRRSGGGGGRFSSCGGGGGSFGAGGGFGSRSLVNLGGSKSISISVARGGGRGSGFGGGYGGGGFGGGGFGGGGFGGGGIGGGGFGGFGSGGGGFGGGGFGGGGYGGGYGPVCPPGGIQEVTINQSLLQPLNVEIDPEIQKVKSREREQIKSLNNQFASFIDKVRFLEQQNQVLQTKWELLQQVDTSTRTHNLEPYFESFINNLRRRVDQLKSDQSRLDSELKNMQDMVEDYRNKYEDEINKRTNAENEFVTIKKDVDGAYMTKVDLQAKLDNLQQEIDFLTALYQAELSQMQTQISETNVILSMDNNRSLDLDSIIAEVKAQYEDIAQKSKAEAESLYQSKYEELQITAGRHGDSVRNSKIEISELNRVIQRLRSEIDNVKKQISNLQQSISDAEQRGENALKDAKNKLNDLEDALQQAKEDLARLLRDYQELMNTKLALDLEIATYRTLLEGEESRMSGECAPNVSVSVSTSHTTISGGGSRGGGGGGYGSGGSSYGSGGGSYGSGGGGGGGRGSYGSGGSSYGSGGGSYGSGGGGGGHGSYGSGSSSGGYRGGSGGGGGGSSGGRGSGGGSSGGSIGGRGSSSGGVKSSGGSSSVKFVSTTYSGVTR
B2: Keratin, type II cytoskeletal 2 epidermal (Homo sapiens), P35908 (parent)
chain: MSCQISCKSRGRGGGGGGFRGFSSGSAVVSGGSRRSTSSFSCLSRHGGGGGGFGGGGFGSRSLVGLGGTKSISISVAGGGGGFGAAGGFGGRGGGFGGGSSFGGGSGFSGGGFGGGGFGGGRFGGFGGPGGVGGLGGPGGFGPGGYPGGIHEVSVNQSLLQPLNVKVDPEIQNVKAQEREQIKTLNNKFASFIDKVRFLEQQNQVLQTKWELLQQMNVGTRPINLEPIFQGYIDSLKRYLDGLTAERTSQNSELNNMQDLVEDYKKKYEDEINKRTAAENDFVTLKKDVDNAYMIKVELQSKVDLLNQEIEFLKVLYDAEISQIHQSVTDTNVILSMDNSRNLDLDSIIAEVKAQYEEIAQRSKEEAEALYHSKYEELQVTVGRHGDSLKEIKIEISELNRVIQRLQGEIAHVKKQCKNVQDAIADAEQRGEHALKDARNKLNDLEEALQQAKEDLARLLRDYQELMNVKLALDVEIATYRKLLEGEECRMSGDLSSNVTVSVTSSTISSNVASKAAFGGSGGRGSSSGGGYSSGSSSYGSGGRQSGSRGGSGGGGSISGGGYGSGGGSGGRYGSGGGSKGGSISGGGYGSGGGKHSSGGGSRGGSSSGGGYGSGGGGSSSVKGSSGEAFGSSVTFSFR
B3: Cyclin-dependent kinase 4 (Homo sapiens), P11802 (parent)
chain: MATSRYEPVAEIGVGAYGTVYKARDPHSGHFVALKSVRVPNGGGGGGGLPISTVREVALLRRLEAFEHPNVVRLMDVCATSRTDREIKVTLVFEHVDQDLRTYLDKAPPPGLPAETIKDLMRQFLRGLDFLHANCIVHRDLKPENILVTSGGTVKLADFGLARIYSYQMALTPVVVTLWYRAPEVLLQSTYATPVDMWSVGCIFAEMFRRKPLFCGNSEADQLGKIFDLIGLPPEDDWPRDVSLPRGAFPPRGPRPVQSVVPEMEESGAQLLLEMLTFNPHKRISAFRALQHSYLHKDEGNPE
B4: Aspartoacylase (Homo sapiens), P45381 (parent)
chain: MTSCHIAEEHIQKVAIFGGTHGNELTGVFLVKHWLENGAEIQRTGLEVKPFITNPRAVKKCTRYIDCDLNRIFDLENLGKKMSEDLPYEVRRAQEINHLFGPKDSEDSYDIIFDLHNTTSNMGCTLILEDSRNNFLIQMFHYIKTSLAPLPCYVYLIEHPSLKYATTRSIAKYPVGIEVGPQPQGVLRADILDQMRKMIKHALDFIHHFNEGKEFPPCAIEVYKIIEKVDYPRDENGEIAAIIHPNLQDQDWKPLHPGDPMFLTLDGKTIPLGGDCTVYPVFVNEAAYYEKKEAFAKTTKLTLNAKSIRCCLH
partner: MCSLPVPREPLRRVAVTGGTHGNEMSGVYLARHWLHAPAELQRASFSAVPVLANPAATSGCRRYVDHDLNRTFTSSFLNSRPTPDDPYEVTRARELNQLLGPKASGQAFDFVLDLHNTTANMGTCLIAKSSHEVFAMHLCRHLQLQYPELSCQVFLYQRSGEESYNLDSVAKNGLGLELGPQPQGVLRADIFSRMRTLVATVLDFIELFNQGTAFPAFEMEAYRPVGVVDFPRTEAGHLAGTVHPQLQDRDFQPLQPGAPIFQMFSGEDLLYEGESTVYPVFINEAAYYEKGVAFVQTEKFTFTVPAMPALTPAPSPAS

Variants of: B1
Details: with nup62_human NUP62, P37198
nup62_human NUP62, P37198, sequence (P37198 whole entry): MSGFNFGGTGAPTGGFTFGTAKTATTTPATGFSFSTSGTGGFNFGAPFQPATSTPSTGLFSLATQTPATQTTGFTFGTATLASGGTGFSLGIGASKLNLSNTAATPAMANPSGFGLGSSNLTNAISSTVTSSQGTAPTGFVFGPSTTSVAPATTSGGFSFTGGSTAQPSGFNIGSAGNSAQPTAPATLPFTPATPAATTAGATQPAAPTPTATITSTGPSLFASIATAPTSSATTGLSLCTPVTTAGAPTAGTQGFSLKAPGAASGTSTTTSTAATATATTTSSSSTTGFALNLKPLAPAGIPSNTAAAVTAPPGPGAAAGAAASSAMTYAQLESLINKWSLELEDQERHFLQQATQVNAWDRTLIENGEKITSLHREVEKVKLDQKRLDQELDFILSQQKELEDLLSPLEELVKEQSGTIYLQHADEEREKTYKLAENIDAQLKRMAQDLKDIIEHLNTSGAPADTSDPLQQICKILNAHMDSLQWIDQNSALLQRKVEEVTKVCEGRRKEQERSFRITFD
L161P was tested, and the “effect of a mutation on the interaction” value was “causing an interaction”.

Variants of: B1
Details: with KRT15, P19012
Target sequence in this assay (P19012 whole entry): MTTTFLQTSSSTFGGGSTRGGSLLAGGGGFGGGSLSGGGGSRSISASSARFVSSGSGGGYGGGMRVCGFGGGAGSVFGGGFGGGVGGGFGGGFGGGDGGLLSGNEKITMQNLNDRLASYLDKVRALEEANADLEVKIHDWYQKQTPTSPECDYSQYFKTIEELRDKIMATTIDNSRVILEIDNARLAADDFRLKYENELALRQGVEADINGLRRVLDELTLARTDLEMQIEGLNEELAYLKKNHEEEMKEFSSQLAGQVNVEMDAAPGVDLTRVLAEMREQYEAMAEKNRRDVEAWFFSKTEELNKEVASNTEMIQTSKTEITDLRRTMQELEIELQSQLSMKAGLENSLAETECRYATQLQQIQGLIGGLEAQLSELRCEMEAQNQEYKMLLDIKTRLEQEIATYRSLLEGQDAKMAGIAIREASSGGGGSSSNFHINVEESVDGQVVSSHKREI
With L161P the “effect of a mutation on the interaction” value was “causing an interaction”.

Variants of: B1
Details: with kt33b_human KRT33B
In the case of L161P, the “effect of a mutation on the interaction” value is reported as “causing an interaction”.

Variants of: B1
Details: with goga2_human GOLGA2, Q08379
goga2_human GOLGA2, Q08379, sequence (Q08379 whole entry): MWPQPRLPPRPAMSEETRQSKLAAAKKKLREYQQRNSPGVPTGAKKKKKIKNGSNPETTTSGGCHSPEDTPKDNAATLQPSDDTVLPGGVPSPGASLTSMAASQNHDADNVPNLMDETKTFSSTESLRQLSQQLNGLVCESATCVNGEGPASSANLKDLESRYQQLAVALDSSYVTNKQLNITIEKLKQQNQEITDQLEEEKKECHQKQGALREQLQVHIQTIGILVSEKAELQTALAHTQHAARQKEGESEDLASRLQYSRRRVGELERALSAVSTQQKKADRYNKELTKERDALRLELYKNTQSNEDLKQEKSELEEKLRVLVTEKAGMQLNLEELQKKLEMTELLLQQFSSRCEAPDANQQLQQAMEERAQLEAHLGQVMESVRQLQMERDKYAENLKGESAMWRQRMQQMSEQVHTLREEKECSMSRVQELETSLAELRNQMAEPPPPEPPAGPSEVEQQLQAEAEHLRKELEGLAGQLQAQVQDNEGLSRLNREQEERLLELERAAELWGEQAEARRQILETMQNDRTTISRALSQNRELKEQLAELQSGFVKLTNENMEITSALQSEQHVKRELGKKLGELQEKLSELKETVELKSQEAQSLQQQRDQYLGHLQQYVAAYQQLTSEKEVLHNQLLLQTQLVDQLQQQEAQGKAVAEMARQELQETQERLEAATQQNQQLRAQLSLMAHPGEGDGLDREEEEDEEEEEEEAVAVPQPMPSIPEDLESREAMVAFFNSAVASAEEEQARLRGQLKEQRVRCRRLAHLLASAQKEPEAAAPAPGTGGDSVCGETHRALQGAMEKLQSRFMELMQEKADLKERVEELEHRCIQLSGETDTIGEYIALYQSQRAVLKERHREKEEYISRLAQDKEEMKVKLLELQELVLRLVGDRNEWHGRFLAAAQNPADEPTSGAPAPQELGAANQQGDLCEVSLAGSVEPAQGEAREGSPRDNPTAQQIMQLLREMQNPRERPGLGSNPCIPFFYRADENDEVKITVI
For L161P, the “effect of a mutation on the interaction” value was “causing an interaction”.

Variants of: B1
Details: with KRT15, P19012
Remark: another data set of the same source
Target sequence in this assay (P19012 whole entry): as the sequence (P19012 whole entry) above
With L161P the “effect of a mutation on the interaction” value was “with no effect”.

Variants of: B1
Details: with kt33b_human KRT33B
Remark: another data set of the same source
With L161P the “effect of a mutation on the interaction” value was “with no effect”.

Variants of: B2
Details: with KRT15, P19012
Target sequence in this assay (P19012 whole entry): as above
In the case of I477N, the “effect of a mutation on the interaction” value is reported as “with no effect”.
For L484P, the “effect of a mutation on the interaction” value was “with no effect”.
In the case of N186K, the “effect of a mutation on the interaction” value is reported as “with no effect”.

Variants of: B2
Details: with KRT40, Q6A162
KRT40, Q6A162, sequence (Q6A162 whole entry): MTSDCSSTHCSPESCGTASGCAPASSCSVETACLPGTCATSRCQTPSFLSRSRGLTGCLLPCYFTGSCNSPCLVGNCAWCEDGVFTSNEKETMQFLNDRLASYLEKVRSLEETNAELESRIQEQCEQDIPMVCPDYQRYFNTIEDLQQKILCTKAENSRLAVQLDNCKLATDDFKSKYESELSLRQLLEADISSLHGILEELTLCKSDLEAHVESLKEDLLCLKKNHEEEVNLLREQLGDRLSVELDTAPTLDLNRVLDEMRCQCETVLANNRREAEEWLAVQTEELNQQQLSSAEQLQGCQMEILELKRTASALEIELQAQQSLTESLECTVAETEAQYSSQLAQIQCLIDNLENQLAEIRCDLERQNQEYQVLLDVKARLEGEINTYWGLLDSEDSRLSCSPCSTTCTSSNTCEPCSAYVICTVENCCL
In the case of I477N, the “effect of a mutation on the interaction” value is reported as “disrupting interaction strength”.
L484P was tested, and the “effect of a mutation on the interaction” value was “with no effect”.
In the case of N186K, the “effect of a mutation on the interaction” value is reported as “with no effect”.

Variants of: B2
Details: with k1h1_human KRT31, Q15323
k1h1_human KRT31, Q15323, sequence (Q15323 whole entry): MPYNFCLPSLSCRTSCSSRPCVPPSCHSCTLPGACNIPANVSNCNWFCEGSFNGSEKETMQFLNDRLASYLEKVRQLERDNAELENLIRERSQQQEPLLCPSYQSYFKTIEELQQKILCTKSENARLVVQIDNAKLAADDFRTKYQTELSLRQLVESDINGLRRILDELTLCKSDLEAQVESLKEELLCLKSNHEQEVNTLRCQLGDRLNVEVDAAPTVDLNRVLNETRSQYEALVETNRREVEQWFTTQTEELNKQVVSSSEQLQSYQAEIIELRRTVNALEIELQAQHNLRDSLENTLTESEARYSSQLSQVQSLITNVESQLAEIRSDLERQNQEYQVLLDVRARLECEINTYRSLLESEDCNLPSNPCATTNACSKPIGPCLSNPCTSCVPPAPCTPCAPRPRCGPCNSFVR
In the case of I477N, the “effect of a mutation on the interaction” value is reported as “disrupting interaction strength”.
In the case of L484P, the “effect of a mutation on the interaction” value is reported as “disrupting interaction strength”.
N186K was tested, and the “effect of a mutation on the interaction” value was “with no effect”.

Variants of: B2
Details: with KRT19, P08727
KRT19, P08727, sequence (P08727 whole entry): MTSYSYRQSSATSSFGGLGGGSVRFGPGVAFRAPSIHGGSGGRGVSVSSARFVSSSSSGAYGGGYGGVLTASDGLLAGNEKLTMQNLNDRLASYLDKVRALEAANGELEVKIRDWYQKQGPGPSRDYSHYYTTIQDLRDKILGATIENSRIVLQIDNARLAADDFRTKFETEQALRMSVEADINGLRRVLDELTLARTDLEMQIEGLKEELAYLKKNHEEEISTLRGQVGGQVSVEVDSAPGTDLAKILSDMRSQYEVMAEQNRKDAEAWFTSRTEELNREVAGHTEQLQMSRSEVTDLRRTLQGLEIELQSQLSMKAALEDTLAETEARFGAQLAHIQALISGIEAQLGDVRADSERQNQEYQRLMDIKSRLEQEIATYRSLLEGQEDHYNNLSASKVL
In the case of I477N, the “effect of a mutation on the interaction” value is reported as “disrupting interaction strength”.
In the case of G219D, the “effect of a mutation on the interaction” value is reported as “with no effect”.
L484P was tested, and the “effect of a mutation on the interaction” value was “with no effect”.
N186K was tested, and the “effect of a mutation on the interaction” value was “with no effect”.

Variants of: B2
Details: with k1h1_human KRT31, Q15323
Remark: another data set of the same source
For I477N, the “effect of a mutation on the interaction” value was “with no effect”.
In the case of G219D, the “effect of a mutation on the interaction” value is reported as “with no effect”.
For L484P, the “effect of a mutation on the interaction” value was “with no effect”.

Variants of: B2
Details: with KRT15, P19012
Remark: another data set of the same source
Target sequence in this assay (P19012 whole entry): as the sequence (P19012 whole entry) above
In the case of G219D, the “effect of a mutation on the interaction” value is reported as “with no effect”.

Variants of: B2
Details: with KRT40, Q6A162
Remark: another data set of the same source
For G219D, the “effect of a mutation on the interaction” value was “with no effect”.
With L484P the “effect of a mutation on the interaction” value was “disrupting interaction strength”.

Variants of: B3
Details: with ccnd1_human CCND1, P24385
ccnd1_human CCND1, P24385, sequence (P24385 whole entry): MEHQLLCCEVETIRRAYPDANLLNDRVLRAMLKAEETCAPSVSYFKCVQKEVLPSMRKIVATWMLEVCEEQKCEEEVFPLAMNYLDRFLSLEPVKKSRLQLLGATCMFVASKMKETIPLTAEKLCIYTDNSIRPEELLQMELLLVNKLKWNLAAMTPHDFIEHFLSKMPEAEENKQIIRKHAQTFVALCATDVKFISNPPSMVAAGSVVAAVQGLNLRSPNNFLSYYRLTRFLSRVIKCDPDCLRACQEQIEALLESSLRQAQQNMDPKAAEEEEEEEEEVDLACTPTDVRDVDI
With N41S the “effect of a mutation on the interaction” value was “with no effect”.
In the case of R24C, the “effect of a mutation on the interaction” value is reported as “with no effect”.
For R24H, the “effect of a mutation on the interaction” value was “with no effect”.
With S52N the “effect of a mutation on the interaction” value was “with no effect”.

Variants of: B3
Details: with ccnd3_human CCND3, P30281
ccnd3_human CCND3, P30281, sequence (P30281 whole entry): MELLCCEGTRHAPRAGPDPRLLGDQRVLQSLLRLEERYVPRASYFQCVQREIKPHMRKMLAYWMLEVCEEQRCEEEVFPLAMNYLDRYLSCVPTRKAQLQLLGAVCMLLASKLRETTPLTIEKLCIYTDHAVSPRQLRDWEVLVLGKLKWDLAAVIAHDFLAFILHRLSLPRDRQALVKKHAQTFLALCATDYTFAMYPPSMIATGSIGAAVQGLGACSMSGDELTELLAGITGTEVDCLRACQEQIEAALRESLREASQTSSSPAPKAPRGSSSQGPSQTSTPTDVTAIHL
N41S was tested, and the “effect of a mutation on the interaction” value was “with no effect”.
With R24C the “effect of a mutation on the interaction” value was “with no effect”.
In the case of R24H, the “effect of a mutation on the interaction” value is reported as “with no effect”.
With S52N the “effect of a mutation on the interaction” value was “with no effect”.

Variants of: B3
Details: with ccnd2_human CCND2, P30279
ccnd2_human CCND2, P30279, sequence (P30279 whole entry): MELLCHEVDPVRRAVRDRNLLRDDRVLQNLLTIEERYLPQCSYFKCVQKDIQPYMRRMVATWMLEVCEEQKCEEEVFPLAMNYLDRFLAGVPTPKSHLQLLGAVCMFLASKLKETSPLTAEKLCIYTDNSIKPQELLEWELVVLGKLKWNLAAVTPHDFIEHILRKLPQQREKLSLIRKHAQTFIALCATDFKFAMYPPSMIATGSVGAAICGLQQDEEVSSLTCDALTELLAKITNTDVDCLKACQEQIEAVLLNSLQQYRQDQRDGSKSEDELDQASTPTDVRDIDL
N41S was tested, and the “effect of a mutation on the interaction” value was “with no effect”.
In the case of R24C, the “effect of a mutation on the interaction” value is reported as “with no effect”.
In the case of R24H, the “effect of a mutation on the interaction” value is reported as “with no effect”.
In the case of S52N, the “effect of a mutation on the interaction” value is reported as “with no effect”.

Variants of: B3
Details: with cdn2b_human CDKN2B
With N41S the “effect of a mutation on the interaction” value was “with no effect”.
In the case of R24C, the “effect of a mutation on the interaction” value is reported as “with no effect”.
With R24H the “effect of a mutation on the interaction” value was “with no effect”.
In the case of S52N, the “effect of a mutation on the interaction” value is reported as “with no effect”.

Variants of: B3
Details: with cdn2c_human CDKN2C
With N41S the “effect of a mutation on the interaction” value was “with no effect”.
R24C was tested, and the “effect of a mutation on the interaction” value was “disrupting interaction strength”.
For R24H, the “effect of a mutation on the interaction” value was “disrupting interaction strength”.
S52N was tested, and the “effect of a mutation on the interaction” value was “with no effect”.

Variants of: B3
Details: with ccnd2_human CCND2, P30279
Remark: another data set of the same source
R24C was tested, and the “effect of a mutation on the interaction” value was “disrupting interaction strength”.

Variants of: B3
Details: with cdn2b_human CDKN2B
Remark: another data set of the same source
For R24H, the “effect of a mutation on the interaction” value was “disrupting interaction strength”.

Variants of: B4
Details: with acy3_human ACY3, Q96HD9
In the case of E24G, the “effect of a mutation on the interaction” value is reported as “disrupting interaction strength”.
